Consider six variants from IntAct's records for PubMed 19817875.

B1: Actin nucleation-promoting factor WAS (Homo sapiens), P42768 (parent)
chain: MSGGPMGGRPGGRGAPAVQQNIPSTLLQDHENQRLFEMLGRKCLTLATAVVQLYLALPPGAEHWTKEHCGAVCFVKDNPQKSYFIRLYGLQAGRLLWEQELYSQLVYSTPTPFFHTFAGDDCQAGLNFADEDEAQAFRALVQEKIQKRNQRQSGDRRQLPPPPTPANEERRGGLPPLPLHPGGDQGGPPVGPLSLGLATVDIQNPDITSSRYRGLPAPGPSPADKKRSGKKKISKADIGAPSGFKHVSHVGWDPQNGFDVNNLDPDLRSLFSRAGISEAQLTDAETSKLIYDFIEDQGGLEAVRQEMRRQEPLPPPPPPSRGGNQLPRPPIVGGNKGRSGPLPPVPLGIAPPPPTPRGPPPPGRGGPPPPPPPATGRSGPLPPPPPGAGGPPMPPPPPPPPPPPSSGNGPAPPPLPPALVPAGGLAPGGGRGALLDQIRQGIQLNKTPGAPESSALQPPPQSSEGLVGALMHVMQKRSRAIHSSDEGEDQAGDEDEDDEWDD

What all share (conditions): with wipf1_human WIPF1, O43516
wipf1_human WIPF1, O43516, sequence (O43516 whole entry): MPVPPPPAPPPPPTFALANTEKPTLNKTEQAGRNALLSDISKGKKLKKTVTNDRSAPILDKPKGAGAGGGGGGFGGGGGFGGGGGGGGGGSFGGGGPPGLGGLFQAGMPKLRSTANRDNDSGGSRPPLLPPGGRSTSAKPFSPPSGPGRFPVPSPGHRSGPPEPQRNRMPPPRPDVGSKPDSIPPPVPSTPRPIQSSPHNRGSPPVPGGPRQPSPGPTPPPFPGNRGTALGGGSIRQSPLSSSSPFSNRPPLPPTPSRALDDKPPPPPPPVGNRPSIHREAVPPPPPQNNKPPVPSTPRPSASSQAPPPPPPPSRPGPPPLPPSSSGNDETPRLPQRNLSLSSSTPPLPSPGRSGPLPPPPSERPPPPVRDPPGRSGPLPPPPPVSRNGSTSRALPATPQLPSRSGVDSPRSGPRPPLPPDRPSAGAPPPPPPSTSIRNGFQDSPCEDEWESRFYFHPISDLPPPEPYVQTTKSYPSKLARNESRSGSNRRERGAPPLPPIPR
In assay [1] the parent is B1.
Variants of B1 are the subject of assay [2]. This is another data set of the same source.
In assay [3] the parent is B1. This is another data set of the same source.

Turning to MSGGPMGGRPGGRGAPAVQQNIPSTLLQDHENQRHFEMLGRKCLTLATAVVQLYLALPPGAEHWTKEHCGAVCFVKDNPQKSYFIRLYGLQAGRLLWEQELYSQLVYSTPTPFFHTFAGDDCQAGLNFADEDEAQAFRALVQEKIQKRNQRQSGDRRQLPPPPTPANEERRGGLPPLPLHPGGDQGGPPVGPLSLGLATVDIQNPDITSSRYRGLPAPGPSPADKKRSGKKKISKADIGAPSGFKHVSHVGWDPQNGFDVNNLDPDLRSLFSRAGISEAQLTDAETSKLIYDFIEDQGGLEAVRQEMRRQEPLPPPPPPSRGGNQLPRPPIVGGNKGRSGPLPPVPLGIAPPPPTPRGPPPPGRGGPPPPPPPATGRSGPLPPPPPGAGGPPMPPPPPPPPPPPSSGNGPAPPPLPPALVPAGGLAPGGGRGALLDQIRQGIQLNKTPGAPESSALQPPPQSSEGLVGALMHVMQKRSRAIHSSDEGEDQAGDEDEDDEWDD [L35H], the results for the “effect of a mutation on the interaction” value in assay [1], in assay [2] and in assay [3] were “with no effect”, “disrupting interaction strength” and “decreasing interaction strength”, respectively.

With MSGGPMGGRPGGRGAPAVQQNIPSTLLQDHENQRLFEMLGRKCLTLATAVVQLYLALPPGAEHWTKEHCGAVCFVKDNPQKSYFTRLYGLQAGRLLWEQELYSQLVYSTPTPFFHTFAGDDCQAGLNFADEDEAQAFRALVQEKIQKRNQRQSGDRRQLPPPPTPANEERRGGLPPLPLHPGGDQGGPPVGPLSLGLATVDIQNPDITSSRYRGLPAPGPSPADKKRSGKKKISKADIGAPSGFKHVSHVGWDPQNGFDVNNLDPDLRSLFSRAGISEAQLTDAETSKLIYDFIEDQGGLEAVRQEMRRQEPLPPPPPPSRGGNQLPRPPIVGGNKGRSGPLPPVPLGIAPPPPTPRGPPPPGRGGPPPPPPPATGRSGPLPPPPPGAGGPPMPPPPPPPPPPPSSGNGPAPPPLPPALVPAGGLAPGGGRGALLDQIRQGIQLNKTPGAPESSALQPPPQSSEGLVGALMHVMQKRSRAIHSSDEGEDQAGDEDEDDEWDD [I85T], the “effect of a mutation on the interaction” value in assay [1] is given as “with no effect”; in assay [2], “disrupting interaction strength”; in assay [3] it was “decreasing interaction strength”.

Regarding MSGGPMGGRPGGRGAPAVQQNIPSTLLQDHENQRLFEMLGRKCLTLATAVVQLYLALPPGAEHWTKEHCGAVYFVKDNPQKSYFIRLYGLQAGRLLWEQELYSQLVYSTPTPFFHTFAGDDCQAGLNFADEDEAQAFRALVQEKIQKRNQRQSGDRRQLPPPPTPANEERRGGLPPLPLHPGGDQGGPPVGPLSLGLATVDIQNPDITSSRYRGLPAPGPSPADKKRSGKKKISKADIGAPSGFKHVSHVGWDPQNGFDVNNLDPDLRSLFSRAGISEAQLTDAETSKLIYDFIEDQGGLEAVRQEMRRQEPLPPPPPPSRGGNQLPRPPIVGGNKGRSGPLPPVPLGIAPPPPTPRGPPPPGRGGPPPPPPPATGRSGPLPPPPPGAGGPPMPPPPPPPPPPPSSGNGPAPPPLPPALVPAGGLAPGGGRGALLDQIRQGIQLNKTPGAPESSALQPPPQSSEGLVGALMHVMQKRSRAIHSSDEGEDQAGDEDEDDEWDD [C73Y], the “effect of a mutation on the interaction” value in assay [1] is listed as “disrupting interaction strength”; in assay [3], “decreasing interaction strength”.

MSGGPMGGRPGGRGAPAVQQNIPSTLLQDHENQRLFEMLGRKCLTLATAVVQLYLALPPGAEHWTKEHCGAVCFVKDNPQKSYFIRLYGLQAGRLLWEQELYSQLVYSTPTPFFHTFAGDDCQAGLNFADEDETQAFRALVQEKIQKRNQRQSGDRRQLPPPPTPANEERRGGLPPLPLHPGGDQGGPPVGPLSLGLATVDIQNPDITSSRYRGLPAPGPSPADKKRSGKKKISKADIGAPSGFKHVSHVGWDPQNGFDVNNLDPDLRSLFSRAGISEAQLTDAETSKLIYDFIEDQGGLEAVRQEMRRQEPLPPPPPPSRGGNQLPRPPIVGGNKGRSGPLPPVPLGIAPPPPTPRGPPPPGRGGPPPPPPPATGRSGPLPPPPPGAGGPPMPPPPPPPPPPPSSGNGPAPPPLPPALVPAGGLAPGGGRGALLDQIRQGIQLNKTPGAPESSALQPPPQSSEGLVGALMHVMQKRSRAIHSSDEGEDQAGDEDEDDEWDD [A134T]: the figures for the “effect of a mutation on the interaction” value in assay [1] and in assay [3] were “disrupting interaction strength” and “decreasing interaction strength”, respectively.

Consider MSGGPMGGRPGGRGAPAVQQNIPSTLLQDHKNQRLFEMLGRKCLTLATAVVQLYLALPPGAEHWTKEHCGAVCFVKDNPQKSYFIRLYGLQAGRLLWEQELYSQLVYSTPTPFFHTFAGDDCQAGLNFADEDEAQAFRALVQEKIQKRNQRQSGDRRQLPPPPTPANEERRGGLPPLPLHPGGDQGGPPVGPLSLGLATVDIQNPDITSSRYRGLPAPGPSPADKKRSGKKKISKADIGAPSGFKHVSHVGWDPQNGFDVNNLDPDLRSLFSRAGISEAQLTDAETSKLIYDFIEDQGGLEAVRQEMRRQEPLPPPPPPSRGGNQLPRPPIVGGNKGRSGPLPPVPLGIAPPPPTPRGPPPPGRGGPPPPPPPATGRSGPLPPPPPGAGGPPMPPPPPPPPPPPSSGNGPAPPPLPPALVPAGGLAPGGGRGALLDQIRQGIQLNKTPGAPESSALQPPPQSSEGLVGALMHVMQKRSRAIHSSDEGEDQAGDEDEDDEWDD [E31K], for which the entries for the “effect of a mutation on the interaction” value in assay [1] and in assay [2] were “with no effect” and “disrupting interaction strength”, respectively.

For MSGGPMGGRPGGRGAPAVQQNIPSTLLQDHENQRLFEMLGRKCLTPATAVVQLYLALPPGAEHWTKEHCGAVCFVKDNPQKSYFIRLYGLQAGRLLWEQELYSQLVYSTPTPFFHTFAGDDCQAGLNFADEDEAQAFRALVQEKIQKRNQRQSGDRRQLPPPPTPANEERRGGLPPLPLHPGGDQGGPPVGPLSLGLATVDIQNPDITSSRYRGLPAPGPSPADKKRSGKKKISKADIGAPSGFKHVSHVGWDPQNGFDVNNLDPDLRSLFSRAGISEAQLTDAETSKLIYDFIEDQGGLEAVRQEMRRQEPLPPPPPPSRGGNQLPRPPIVGGNKGRSGPLPPVPLGIAPPPPTPRGPPPPGRGGPPPPPPPATGRSGPLPPPPPGAGGPPMPPPPPPPPPPPSSGNGPAPPPLPPALVPAGGLAPGGGRGALLDQIRQGIQLNKTPGAPESSALQPPPQSSEGLVGALMHVMQKRSRAIHSSDEGEDQAGDEDEDDEWDD [L46P], the results for the “effect of a mutation on the interaction” value in assay [1] and in assay [3] were “disrupting interaction strength” and “decreasing interaction strength”, respectively.
